This note sets out measurements from US20170037136A1 (Janssen / Centocor, published 2017).

As usually defined, the Kd is the concentration at which binding is half-saturated. Low readings indicate a tighter complex, high ones a looser complex. As a reminder, the koff is a measure of how fast the partners let go of each other. As a reminder, the kon is the second-order rate constant of association.

Assay [1] deals with T1, shCD154-his (soluble human CD154, His6 fusion) (human, UniProt P29965 113-261).
T1 construct: predominantly trimer
T1 sequence: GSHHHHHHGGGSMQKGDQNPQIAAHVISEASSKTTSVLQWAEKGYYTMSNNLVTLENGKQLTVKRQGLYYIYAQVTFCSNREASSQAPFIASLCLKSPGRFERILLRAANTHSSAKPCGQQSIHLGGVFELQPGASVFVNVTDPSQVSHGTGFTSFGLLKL
Nature of the assay: SPR (ProteOn XPR36), antibody captured via anti-human IgG Fc, shCD154-his analyte, 25 C, two-states binding model. The protocol:
(§1) Affinity measurements using Surface Plasmon Resonance (SPR) were performed using a ProteOn XPR36 system (BioRad). […] Approximately 4700 RU (response units) of test antibodies were immobilized. The kinetic experiments were performed at 25° C. in running buffer (DPBS+0.03% polysorbate P20+100 μg/ml BSA). […] The association phase was monitored for 3 minutes at 50 μL/min followed by 15 minutes of buffer flow (dissociation phase). The chip surface was regenerated with two 18 second pulses of 100 mM H₃PO₄ (Sigma, Cat#7961) at 100 μL/min.
(§2) Affinity measurements were done using ProteOn as described in Example 1.

Assay [2] has as its target T2, human CD154 endogenously expressed on D1.1 Jurkat cells (human, UniProt P29965 1-261).
T2 sequence: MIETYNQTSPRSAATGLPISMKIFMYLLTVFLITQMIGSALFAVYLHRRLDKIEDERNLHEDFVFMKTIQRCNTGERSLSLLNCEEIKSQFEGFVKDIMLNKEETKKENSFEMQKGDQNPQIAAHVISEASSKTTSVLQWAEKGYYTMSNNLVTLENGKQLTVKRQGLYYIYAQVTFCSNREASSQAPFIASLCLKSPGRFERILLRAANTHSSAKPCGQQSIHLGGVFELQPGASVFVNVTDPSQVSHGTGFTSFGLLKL
Nature of the assay: cell-based or functional assay.

Assay [3] deals with T3, shCD154-ILZ (soluble human CD154, leucine zipper fusion) (human). Nature of the assay: cell-based or functional assay.
Assay [4] addresses T1, shCD154-his (soluble human CD154, His6 …). Nature of the assay: SPR (ProteOn XPR36), antibody captured via anti-human IgG Fc, shCD154-his analyte, 25 C, 1:1 Langmuir model. The procedure: as §1
(§3) The collected data were processed using ProteOn Manager software. First, the data was corrected for background using inter-spots. Then, double reference subtraction of the data was performed by using the buffer injection for analyte injections. The kinetic analysis of the data was performed using a Langmuir 1:1 binding model.
as §2

Assay [5] has the same target. Nature of the assay: cell-based or functional assay.
For assay [6] the target is unchanged. Nature of the assay: SPR (ProteOn XPR36) as in Example 1, human CD154; mean ± SD, n = 4. The procedure: as §1, §3
The target is the same in assay [7]. Nature of the assay: SPR (ProteOn XPR36), protocols of Example 1; analyte not given. The protocol:
as §1, §3

Assay [8] concerns the target T3, shCD154-ILZ (soluble human CD154, …). Nature of the assay: cell-based or functional assay. The source holds these as a separate data set.

B1: C4LB150 (antibody, V domains shown)
VH: QLQLQESGPGLVKPSETLSLTCTVSGGSISSYSFYWGWIRQPPGQGLEWIGSLYYSGSTYYNPSLKSRATMSVVTSKTQFSLNLNSVTAADTAVYYCARLQLGTTTDYFDHWGQGTLVTVSS
VL: SYELTQPPSVSVSPGQTASITCSGDELGDKFACWYQQKPGQSPVLVIWQENKRPSGIPERFSGSNSGNTATLTISGTQAMDEADYYCQAWDSDTAVFGGGTKLTVL
notes: IgG2sigma effector silent mAb; lambda VL (OmniRat antibodies were cloned as IgG2sigma/lambda); also called VH C4LH201; VL C4LL82
In assay [1], B1 had a Kd of 2.72 nM, a koff of 0.00617 s⁻¹ and an on-rate (kon) of 2.27e+06 M⁻¹ s⁻¹. In addition, the “NF-κB SEAP reporter gene assay; IC50 (nM); D1.1 Jurkat” value in assay [2] stood at 3.57 nM. For the same molecule, the “NF-κB SEAP reporter gene assay; IC50 (nM); shCD154-ILZ” value in assay [3] amounted to 4.95 nM.

B2: C4LB199 (antibody, V domains shown)
VH: QVQLQESGPGLVKPSETLSLTCTVSGDSISSFIYYWGWIRQPPGKGLDWVGCIYSSGGTYYNPSLKSRVTISVDTSKNQFSLKLPSVTAADTAVYYCARLWLGTTTDYFDYWGQGTLVTVSS
VL: SYELTQPPSVSVSPGQTVSITCSGDKLGDKFACWYQQKPGQSPVVVIYQDDKRPSGIPERFSGSTSGNTATLTISGTQAMDEADYYCQAWDSNTVVFGGGTKLTVL
notes: IgG2sigma effector silent mAb; lambda VL; also called VH C4LH250; VL C4LL125
For B2, in assay [4], binding was put at a Kd of 0.253 nM, the koff was determined as 0.000404 s⁻¹ and the kon is 1.6e+06 M⁻¹ s⁻¹. Besides, in assay [2], the “NF-κB SEAP reporter gene assay; IC50 (nM); D1.1 Jurkat” value was found to be 1.21 nM. Also, the “NF-κB SEAP reporter gene assay; IC50 (nM); shCD154-ILZ” value in assay [3] worked out at 1.09 nM.

B3: C4LB237 (antibody, V domains shown)
VH: QVQLVQSGAEVKKPGSSVKVSCKASGGTFSSYGISWVRQAPGQGLEWMGWISPIFGNTNYAQKFQGRVTITADESTSTAYMELSSLRSEDTAVYYCARSRYYGDLDYWGQGTLVTVSS
VL: DIQMTQSPSSLSASVGDRVTITCRASQSISSYLNWYQQKPGKAPKLLIYYANSLQSGVPSRFSGSGSGTDFTLTISSLQPEDFATYYCQQSDSIPWTFGQGTKVEIK
notes: C4LB89 variable regions cloned as wild-type IgG1/kappa; also called C4LBB237
Regarding B3, in assay [5], the “NF-κB SEAP reporter gene assay; IC50” value was 2.56 nM. Moreover, in assay [6], binding was characterised by a dissociation constant (Kd) of 0.0236 nM, the koff is 6.05e-05 s⁻¹ and the kon turned out to be 2.59e+06 M⁻¹ s⁻¹.

B4: C4LB83 (antibody, V domains shown)
VH: QVQLVQSGAEVKKPGSSVKVSCKASGGTFSSYAISWVRQAPGQGLEWMGWIIPIFGNTNYAQKFQGRVTITADESTSTAYMELSSLRSEDTAVYYCAREKDFRGYTKLDYWGQGTLVTVSS
VL: DIQMTQSPSSLSASVGDRVTITCRASQSINNWLNWYQQKPGKAPKLLIYAASSLQSGVPSRFSGSGSGTDFTLTISSLQPEDFATYYCQQSFSFPYTFGQGTKVEIK
notes: IgG2sigma
In assay [7], B4 had a Kd of 2.23 nM, a koff of 0.0047 s⁻¹ and a kon of 2.1e+06 M⁻¹ s⁻¹.

B5: C4LB189 (antibody, V domains shown)
VH: QVQLVQSGAEVKKPGASVKVSCKASGYTFAAYYIHWVRQAPGQGLEWMGRINPDSGGTDYAQRFQGRVTMTRDTSISTAYMELSRLRSDDTAVFYCARDWNYYDGSGYFGPGYYGLDVWGQGTTVTVSS
VL: SYELTQPPSVSVSPGQTASVTCSGDKLGDKYVCWYQRKPGQSPVLVIYQDRKRPSGIPERFSGSNSGNTATLTISGTQAIDEADYYCQAWDSGTVVFGRGTKLTVL
notes: IgG2sigma effector silent mAb; lambda VL; also called VH C4LH240; VL C4LL116
In assay [4], B5 gave a Kd of 0.581 nM, a koff of 0.000206 s⁻¹ and a kon of 355000 M⁻¹ s⁻¹. Moreover, the “NF-κB SEAP reporter gene assay; IC50 (nM); D1.1 Jurkat” value in assay [2] worked out at 2.06 nM. Further, the “NF-κB SEAP reporter gene assay; IC50 (nM); shCD154-ILZ” value in assay [3] came to 1.63 nM.

B6: C4LB191 (antibody, V domains shown)
VH: QVQLVQSGAEVKKPGASMKVSCKASGYTFTDYYIHWVRQAPGQGLEWVGRFNPNSGDTNGAQKFQGRVTMTRDTSISTAYMELTRLRSDDTAVYHCAREGELAGIFFDYWGQGTLVTVSS
VL: SYELTQPPSVSVSPGQTASITCSGDKLGDKYVSWNHQKPGQSPVLVIYQDRKRPSGIPERFSGSNSGNTATLTISGTQAMDEADYYCQAWDSSTVVFGGGTKLTVL
notes: IgG2sigma effector silent mAb; lambda VL; also called VH C4LH242; VL IAPL39
Turning to B6, in assay [4], binding was characterised by a dissociation constant (Kd) of 0.0313 nM, the koff was found to be 0.000176 s⁻¹ and the kon came to 5.62e+06 M⁻¹ s⁻¹.

B7: C4LB94 (antibody, V domains shown)
VH: QVQLVQSGAEVKKPGSSVKVSCKASGGTFSSYAISWVRQAPGQGLEWMGGISPYFGNTNYAQKFQGRVTITADESTSTAYMELSSLRSEDTAVYYCARDTGWVGAFYLDYWGQGTLVTVSS
VL: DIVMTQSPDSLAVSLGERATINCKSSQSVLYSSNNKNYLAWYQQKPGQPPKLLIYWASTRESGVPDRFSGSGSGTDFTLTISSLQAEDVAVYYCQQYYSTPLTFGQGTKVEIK
notes: IgG2sigma, kappa; also called VH C4LH99; VL PH9L2
With B7, in assay [1], binding was characterised by a dissociation constant (Kd) of 2.09 nM, the koff was 0.00329 s⁻¹ and the kon turned out to be 1.58e+06 M⁻¹ s⁻¹. Moreover, the “NF-κB SEAP reporter gene assay; IC50 (nM); D1.1 Jurkat” value in assay [2] worked out at 0.13 nM. Further, the “NF-κB SEAP reporter gene assay; IC50 (nM); shCD154-ILZ” value in assay [3] turned out to be 4.37 nM.

B8: C4LB119 (antibody, V domains shown)
VH: QVQLVQSGAEVKKPGSSVKVSCKASGGTFSSYYISWVRQAPGQGLEWMGAIDPYFGYANYAQKFQGRVTITADESTSTAYMELSSLRSEDTAVYYCARTGLNYGGFDYWGQGTLVTVSS
VL: EIVLTQSPATLSLSPGERATLSCRASQSVSSYLAWYQQKPGQAPRLLIYDASNRATGIPARFSGSGSGTDFTLTISSLEPEDFAVYYCQQRSNWPLTFGQGTKVEIK
notes: IgG2sigma
Consider B8, for which, in assay [7], the affinity, expressed as Kd, was 4.79 nM; the koff is 0.0088 s⁻¹; the kon was 1.84e+06 M⁻¹ s⁻¹.

B9: C4LB5 (antibody, V domains shown)
VH: QVQLVQSGAEVKKPGSSVKVSCKASGGTFSSYAISWVRQAPGQGLEWMGGIIPIFGTANYAQKFQGRVTITADESTSTAYMELSSLRSEDTAVYYCARGASVWDGPAEVFDYWGQGTLVTVSS
VL: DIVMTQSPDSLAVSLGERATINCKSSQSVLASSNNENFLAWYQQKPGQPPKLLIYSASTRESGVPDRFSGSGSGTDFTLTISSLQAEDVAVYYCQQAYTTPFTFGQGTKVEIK
notes: Phage-derived; IgG2sigma effector silent mAb (V234A, G237A, P238S, H268A, V309L, A330S, P331S), kappa; also called VH C4LH12; VL C4LL8
Consider B9, for which, in assay [8], the “B cell activation assay; IC50 (nM); shCD154-ILZ/cyno B cell” value was 5.35 nM and the “B cell activation assay; IC50 (nM); shCD154-ILZ/human B cells” value was determined as 2.74 nM. In assay [4], this molecule registered a Kd of 0.312 nM, a koff of 0.000178 s⁻¹ and a kon of 570000 M⁻¹ s⁻¹. The “NF-κB SEAP reporter gene assay; IC50 (nM); D1.1 Jurkat” value in assay [2] is 1.55 nM. Further, the “NF-κB SEAP reporter gene assay; IC50 (nM); shCD154-ILZ” value in assay [3] came out at 0.54 nM.

B10: C4LB89 (antibody, human IgG2, kappa)
heavy: QVQLVQSGAEVKKPGSSVKVSCKASGGTFSSYGISWVRQAPGQGLEWMGWISPIFGNTNYAQKFQGRVTITADESTSTAYMELSSLRSEDTAVYYCARSRYYGDLDYWGQGTLVTVSSASTKGPSVFPLAPCSRSTSESTAALGCLVKDYFPEPVTVSWNSGALTSGVHTFPAVLQSSGLYSLSSVVTVPSSNFGTQTYTCNVDHKPSNTKVDKTVERKCCVECPPCPAPPAAASSVFLFPPKPKDTLMISRTPEVTCVVVDVSAEDPEVQFNWYVDGVEVHNAKTKPREEQFNSTFRVVSVLTVLHQDWLNGKEYKCKVSNKGLPSSIEKTISKTKGQPREPQVYTLPPSREEMTKNQVSLTCLVKGFYPSDIAVEWESNGQPENNYKTTPPMLDSDGSFFLYSKLTVDKSRWQQGNVFSCSVMHEALHNHYTQKSLSLSPGK
light: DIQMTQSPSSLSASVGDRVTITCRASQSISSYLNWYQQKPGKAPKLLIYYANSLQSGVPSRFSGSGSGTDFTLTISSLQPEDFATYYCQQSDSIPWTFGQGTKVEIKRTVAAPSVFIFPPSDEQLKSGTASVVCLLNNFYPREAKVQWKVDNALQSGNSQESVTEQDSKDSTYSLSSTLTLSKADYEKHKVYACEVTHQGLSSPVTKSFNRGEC
notes: IgG2sigma/kappa; also called VH C4LH165; VL C4LL49
In the case of B10, the “NF-κB SEAP reporter gene assay; IC50” value in assay [5] was found to be 6.22 nM. Besides, in assay [4], binding was characterised by a dissociation constant (Kd) of 0.235 nM, the koff is 0.00038 s⁻¹ and the kon was 1.61e+06 M⁻¹ s⁻¹.
